These results are taken from paper PMC8982864 (PLoS Biology, 2022).

Experiment [1] addresses FZD2 CRD (CRD2) CRD (Homo sapiens) (UniProt Q14332). The following applies: cited from earlier work.
Experiment [2] deals with CSPG4 D1401-560 401-560 (Homo sapiens) (UniProt Q6UVK1). The conditions noted are these: cited from earlier work.
For experiment [3], the target named is CSPG4 domain 1 fragment, residues 401-560 (D1401-560), C-terminal GFP (UniProt Q6UVK1). As to the kind of experiment: Bio-layer interferometry (Octet Red 96, ForteBio). The following applies: pH 7.5; 25°C; PBS (composition not stated).
The target in experiment [4] is Frizzled-2 cysteine-rich domain Fc fusion (FZD2-CRD-Fc, 'CRD2') (UniProt Q14332). As to the kind of experiment: Bio-layer interferometry (Octet Red 96, ForteBio). The conditions noted are these: 25°C, PBS (composition not stated).
The target of experiment [5] is TcdB-biotin (biotinylated full-length TcdB) (Clostridioides difficile (VPI 10463 …, UniProt P18177 1-2366)). As to the kind of experiment: ELISA. The following applies: both partners purified.

CSPG4 domain 1 fragment, residues 401-560 (D1401-560), C-terminal GFP, sequence (Q6UVK1 whole entry, the tested form may be a part): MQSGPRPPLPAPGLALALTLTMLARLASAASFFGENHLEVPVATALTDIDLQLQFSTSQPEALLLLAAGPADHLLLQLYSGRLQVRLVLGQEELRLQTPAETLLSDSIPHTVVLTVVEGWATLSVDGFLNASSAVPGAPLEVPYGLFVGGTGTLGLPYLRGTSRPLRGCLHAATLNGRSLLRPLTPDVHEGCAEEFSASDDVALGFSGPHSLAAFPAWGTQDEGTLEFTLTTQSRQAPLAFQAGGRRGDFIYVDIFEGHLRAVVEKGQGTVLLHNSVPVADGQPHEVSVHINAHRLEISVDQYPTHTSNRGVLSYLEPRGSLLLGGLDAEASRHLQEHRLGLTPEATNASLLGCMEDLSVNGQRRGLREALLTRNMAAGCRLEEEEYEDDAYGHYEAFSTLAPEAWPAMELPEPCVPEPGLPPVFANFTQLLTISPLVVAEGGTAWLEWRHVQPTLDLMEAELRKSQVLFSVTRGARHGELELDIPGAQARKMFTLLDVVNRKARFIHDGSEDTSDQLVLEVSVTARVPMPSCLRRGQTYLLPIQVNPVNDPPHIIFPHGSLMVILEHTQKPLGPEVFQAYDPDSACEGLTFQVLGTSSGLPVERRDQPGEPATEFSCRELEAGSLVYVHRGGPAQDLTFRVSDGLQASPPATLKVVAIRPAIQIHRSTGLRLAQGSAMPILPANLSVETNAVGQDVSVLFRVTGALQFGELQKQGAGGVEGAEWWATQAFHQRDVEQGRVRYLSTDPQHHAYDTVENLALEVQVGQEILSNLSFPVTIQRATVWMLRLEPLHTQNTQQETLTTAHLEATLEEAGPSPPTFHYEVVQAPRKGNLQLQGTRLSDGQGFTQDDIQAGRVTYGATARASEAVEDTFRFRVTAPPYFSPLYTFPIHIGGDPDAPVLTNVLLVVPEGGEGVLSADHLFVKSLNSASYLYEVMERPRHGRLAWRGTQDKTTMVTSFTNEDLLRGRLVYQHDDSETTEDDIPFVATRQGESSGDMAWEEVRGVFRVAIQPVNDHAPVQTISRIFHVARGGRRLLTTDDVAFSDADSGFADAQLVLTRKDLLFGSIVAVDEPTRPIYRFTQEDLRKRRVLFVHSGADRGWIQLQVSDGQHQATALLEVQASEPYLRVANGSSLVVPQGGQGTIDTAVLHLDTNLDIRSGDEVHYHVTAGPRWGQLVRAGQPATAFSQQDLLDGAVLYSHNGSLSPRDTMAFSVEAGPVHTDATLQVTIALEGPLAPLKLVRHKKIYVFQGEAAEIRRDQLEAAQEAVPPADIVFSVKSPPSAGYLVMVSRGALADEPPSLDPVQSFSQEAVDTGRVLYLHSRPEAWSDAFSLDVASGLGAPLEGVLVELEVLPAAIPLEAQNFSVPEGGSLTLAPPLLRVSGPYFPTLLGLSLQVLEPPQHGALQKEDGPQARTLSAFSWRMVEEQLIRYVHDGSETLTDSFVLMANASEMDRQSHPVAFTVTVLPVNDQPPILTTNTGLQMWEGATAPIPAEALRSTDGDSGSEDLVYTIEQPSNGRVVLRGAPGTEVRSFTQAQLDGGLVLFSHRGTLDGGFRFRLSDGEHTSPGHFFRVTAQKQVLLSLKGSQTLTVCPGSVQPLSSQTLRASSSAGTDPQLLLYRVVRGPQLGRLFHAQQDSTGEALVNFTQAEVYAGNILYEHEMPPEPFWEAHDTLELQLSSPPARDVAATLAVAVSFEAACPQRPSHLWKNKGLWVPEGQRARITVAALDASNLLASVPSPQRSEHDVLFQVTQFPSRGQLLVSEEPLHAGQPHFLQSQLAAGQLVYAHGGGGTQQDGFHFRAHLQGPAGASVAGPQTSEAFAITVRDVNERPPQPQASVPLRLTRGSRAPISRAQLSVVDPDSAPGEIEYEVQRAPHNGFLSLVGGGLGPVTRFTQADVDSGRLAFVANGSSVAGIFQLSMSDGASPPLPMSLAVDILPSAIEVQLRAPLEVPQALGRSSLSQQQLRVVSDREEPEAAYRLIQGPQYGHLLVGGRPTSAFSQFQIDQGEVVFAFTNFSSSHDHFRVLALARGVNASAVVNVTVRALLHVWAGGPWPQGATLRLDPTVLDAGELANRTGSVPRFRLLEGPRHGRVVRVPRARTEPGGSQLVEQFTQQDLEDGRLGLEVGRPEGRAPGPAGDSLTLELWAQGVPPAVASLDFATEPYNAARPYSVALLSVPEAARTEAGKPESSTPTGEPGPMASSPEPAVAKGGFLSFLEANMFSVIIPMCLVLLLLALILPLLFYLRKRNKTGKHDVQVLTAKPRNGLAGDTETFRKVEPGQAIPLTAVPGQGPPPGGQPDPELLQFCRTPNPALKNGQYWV

For the molecule TcdB (from UniProt P18177), the Kd in experiment [1] was 19 nM; in experiment [2] it was 29 nM.
Take “Toxin B (TcdB), full length, C-terminal 6xHis”: the KD entry in experiment [3] is “approximately 10 nM”; in experiment [4] (pH 5), “approximately 1 μM”; in experiment [4] (pH 7.5), “approximately 12 nM”.

B1: CSPG4 domain 1 fragment D1_(401-560) with C-terminal GFP tag (domain or fragment, UniProt Q6UVK1 401-560, looked up)
chain: LAPEAWPAMELPEPCVPEPGLPPVFANFTQLLTISPLVVAEGGTAWLEWRHVQPTLDLMEAELRKSQVLFSVTRGARHGELELDIPGAQARKMFTLLDVVNRKARFIHDGSEDTSDQLVLEVSVTARVPMPSCLRRGQTYLLPIQVNPVNDPPHIIFPHG
notes: not shown: GFP, C-terminal, kept
B1: the binding result in experiment [5] is listed as “binds”.

As a reminder, the Kd is the constant that tells how readily two partners part at equilibrium.
